Where no end group is shown, it is not given here. Ahx = NCCCCCC(=O)O
T1: carboxy-terminus of Hsp70 interacting protein (CHIP), recombinant (human, UniProt Q9UNE7 1-303)
T1 sequence: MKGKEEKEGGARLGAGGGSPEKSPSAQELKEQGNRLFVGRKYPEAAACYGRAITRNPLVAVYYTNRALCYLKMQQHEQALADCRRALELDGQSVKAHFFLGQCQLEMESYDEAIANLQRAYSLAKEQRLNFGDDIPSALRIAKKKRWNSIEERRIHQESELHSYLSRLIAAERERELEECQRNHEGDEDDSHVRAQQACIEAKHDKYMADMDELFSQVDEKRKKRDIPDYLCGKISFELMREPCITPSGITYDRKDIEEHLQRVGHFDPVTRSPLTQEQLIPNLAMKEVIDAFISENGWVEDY

T2: Human CHIP(21-154)-TPR domain (human, UniProt Q9UNE7 21-154)
T2 sequence: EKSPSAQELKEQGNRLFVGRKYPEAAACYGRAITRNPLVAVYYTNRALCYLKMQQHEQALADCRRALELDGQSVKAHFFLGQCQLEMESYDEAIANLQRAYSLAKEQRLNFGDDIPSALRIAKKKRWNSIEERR


Experiments:
[1] = target: T1, carboxy-terminus of Hsp70 interacting …; assay: fluorescence polarisation
[2] = target: T2, Human CHIP(21-154)-TPR domain; assay: crystal structure

Binder	binding result [1]	further results
Ac-LPKTPIFRPD [CHIC2 C-terminal 10-mer peptide Ac-LPKTPIFRPD]	binds	–
{FAM-Ahx}-IWWPD [IWWPD tracer]	binds	–
EFLPKTPIFRPD [HsCHIC2(154-165)-c-term peptide]	–	binding result [2]: binds
LWWPD (not fully specified (N-terminus); printed as FITC-Ahx-LWWPD) [CHIPOpt tracer (FITC-Ahx-LWWPD)]	binds	–
{FAM-Ahx}-IEEVD [Hsp70 C-terminal tracer (FAM-Ahx-IEEVD)]	binds	–
{FAM-Ahx}-IFRPD [labeled CHIC2 peptide (FAM-Ahx-IFRPD)]	–	Kd [1]: 148 ± 6 nM

Source: article doi:10.1101/2023.07.17.549407 (bioRxiv, 2023)
